Molecular target: A-beta42 Monomer (human)
Assay: SPR direct binding (MASS-1), hybridoma supernatant over immobilized antigen

Chain of A-beta42 Monomer (human) (peptide, as listed by the source): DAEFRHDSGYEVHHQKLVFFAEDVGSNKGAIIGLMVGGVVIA

response units (RU): 46 RU
B1: 301-12G11 (17) (antibody, V domains shown)
VH: QVQLQQPGAELVKPGASVKMSCKASGYSFTSYWINWVKQRPGQGLEWIGDVHPGRGVSTYNAKFKSKATLTLDTSSSTAYMQLSSLTSEDSAVYYCSRSHGNTYWFFDVWGAGTTVTVSS
VL: DVLMTQTPLSLPVSLGDQASISCRSSQSIVHSNGNTYLEWYLQKPGQSPKLLIYKVSNRFSGVPDRFSGSGSGTDFTLKISRVEAEDLGVYYCFQGSHVPFTFGSGTKLEIKR

— patent US20210087244A1
